Laboratory results taken from the Human Domainome abundance scans (Beltran et al. 2025).
± gives the uncertainty stated by the source.

B1: POU domain, class 3, transcription factor 3, residues 408 to 463; numbered along this chain, P20264 (parent)
chain: KKRTSIEVSVKGALESHFLKCPKPSAQEITNLADSLQLEKEVVRVWFCNRRQKEKR

Variants of: B1
Assay: abundance fitness (aPCA) (normalised: wild type 0, dead -1); higher = more abundant; growth selection in yeast, the domain comes from the species named
Details: Homo sapiens

Variant	abundance fitness
KKRTSIEVSVKGALESHFLKCPKPSACEITNLADSLQLEKEVVRVWFCNRRQKEKR [Q27C]	-0.171 ± 0.1
KKRTSIEVSVKGALESHFLKCPKPSAHEITNLADSLQLEKEVVRVWFCNRRQKEKR [Q27H]	-0.123 ± 0.12
KKRTSIEVSVKGALESHFLKCPKPSAMEITNLADSLQLEKEVVRVWFCNRRQKEKR [Q27M]	-0.194 ± 0.1
KKRTSIEVSVKGALESHFLKCPKPSASEITNLADSLQLEKEVVRVWFCNRRQKEKR [Q27S]	-0.098 ± 0.073
KKRTSIEVSVKGALESHFLKCPKPSAREITNLADSLQLEKEVVRVWFCNRRQKEKR [Q27R]	-0.055 ± 0.058
KKRTSIEVSVKGALESHFLKCPKPSANEITNLADSLQLEKEVVRVWFCNRRQKEKR [Q27N]	0.098 ± 0.19
KKRTSIEVSVKGALESHFLKCPKPSYQEITNLADSLQLEKEVVRVWFCNRRQKEKR [A26Y]	-0.087 ± 0.13
KKRTSIEVSVKGALESHFLKCPKPSAQEITNLEDSLQLEKEVVRVWFCNRRQKEKR [A33E]	-0.964 ± 0.21
KKRTSIEVSVKGALESHFLKCPKPSAQEITNLDDSLQLEKEVVRVWFCNRRQKEKR [A33D]	-0.863 ± 0.13
KKRTSIEVSVKGALESHFLKCPKPSAQEITNLCDSLQLEKEVVRVWFCNRRQKEKR [A33C]	-0.515 ± 0.11
KKRTSIEVSVKGALESHFLKCPKPSAQEITSLADSLQLEKEVVRVWFCNRRQKEKR [N31S]	-0.033 ± 0.038
KKRTSIEVSVKGALESHFLKCPKPSAQEITYLADSLQLEKEVVRVWFCNRRQKEKR [N31Y]	-0.009 ± 0.098
KKRTSIEVSVKGALESHFLKCPKPSAQEITNNADSLQLEKEVVRVWFCNRRQKEKR [L32N]	-0.897 ± 0.19
KKRTSIEVSVKGALESHFLKCPKPSAQEITNSADSLQLEKEVVRVWFCNRRQKEKR [L32S]	-0.95 ± 0.13
KKRTSIEVSVKGALESHFLKCPKPSAQEITNRADSLQLEKEVVRVWFCNRRQKEKR [L32R]	-0.758 ± 0.091
KKRTSIEVSVKGALESHFLKCPKPSAQEITNQADSLQLEKEVVRVWFCNRRQKEKR [L32Q]	-0.923 ± 0.16
KKRTSIEVSVKGALESHFLKCPKPSAQEITNWADSLQLEKEVVRVWFCNRRQKEKR [L32W]	-0.967 ± 0.17
KKRTSIEVSVKGALESHFLKCPKPSAQEITNIADSLQLEKEVVRVWFCNRRQKEKR [L32I]	0.187 ± 0.17
KKRTSIEVSVKGALESHFLKCPKPSAQEITNKADSLQLEKEVVRVWFCNRRQKEKR [L32K]	-1.06 ± 0.2
KKRTSIEVSVKGALESHFLKCPKPSAQEITNFADSLQLEKEVVRVWFCNRRQKEKR [L32F]	-0.556 ± 0.16
KKRTSIEVSVKGALESHFLKCPKPSAQEITNGADSLQLEKEVVRVWFCNRRQKEKR [L32G]	-0.88 ± 0.1
KKRTSIEVSVKGALESHFLKCPKPSAQEITNDADSLQLEKEVVRVWFCNRRQKEKR [L32D]	-1.03 ± 0.14
KKRTSIEVSVKGALESHFLKCPKPSAQEITNVADSLQLEKEVVRVWFCNRRQKEKR [L32V]	-0.245 ± 0.067
KKRTSIEVSVKGALESHFLKCPKPSAQEITNAADSLQLEKEVVRVWFCNRRQKEKR [L32A]	-0.92 ± 0.15

Variant	abundance fitness
KKRTSIEVSVKGALESHFLKCPKPSAQEITNCADSLQLEKEVVRVWFCNRRQKEKR [L32C]	-1.07 ± 0.41
KKRTSIEVSVKGALESHFLKCPKPSAQEITNHADSLQLEKEVVRVWFCNRRQKEKR [L32H]	-0.652 ± 0.16
KKRTSIEVSVKGALESHFLKCPKPSAQEITNTADSLQLEKEVVRVWFCNRRQKEKR [L32T]	-0.78 ± 0.12
KKRTSIEVSVKGALESHFLKCPKPSAQEITNPADSLQLEKEVVRVWFCNRRQKEKR [L32P]	-0.935 ± 0.19
KKRTSIEVSVKGALESHFLKCPKPSAQEITNEADSLQLEKEVVRVWFCNRRQKEKR [L32E]	-0.782 ± 0.13
KKRTSIEVSVKGALESHFLKCPKPSAQEIMNLADSLQLEKEVVRVWFCNRRQKEKR [T30M]	-0.057 ± 0.095
KKRTSIEVSVKGALESHFLKCPKPSAQEIENLADSLQLEKEVVRVWFCNRRQKEKR [T30E]	-0.107 ± 0.11
KKRTSIEVSVKGALESHFLKCPKPSAQEIWNLADSLQLEKEVVRVWFCNRRQKEKR [T30W]	-0.327 ± 0.095
KKRTSIEVSVKGALESHFLKCPKPSAQEIVNLADSLQLEKEVVRVWFCNRRQKEKR [T30V]	-0.1 ± 0.064
KKRTSIEVSVKGALESHFLKCPKPSAQEIANLADSLQLEKEVVRVWFCNRRQKEKR [T30A]	-0.028 ± 0.077
KKRTSIEVSVKGALESHFLKCPKPSAQEIKNLADSLQLEKEVVRVWFCNRRQKEKR [T30K]	-0.044 ± 0.1
KKRTSIEVSVKGALESHFLKCPKPSAQEIDNLADSLQLEKEVVRVWFCNRRQKEKR [T30D]	0.048 ± 0.1
KKRTSIEVSVKGALESHFLKCPKPSAQEIGNLADSLQLEKEVVRVWFCNRRQKEKR [T30G]	-0.072 ± 0.062
KKRTSIEVSVKGALESHFLKCPKPSAQEIRNLADSLQLEKEVVRVWFCNRRQKEKR [T30R]	-0.17 ± 0.066
KKRTSIEVSVKGALESHFLKCPKPSAQEIPNLADSLQLEKEVVRVWFCNRRQKEKR [T30P]	-0.847 ± 0.14
KKRTSIEVSVKGALESHFLKCPKPSAQEIYNLADSLQLEKEVVRVWFCNRRQKEKR [T30Y]	-0.337 ± 0.13
KKRTSIEVSVKGALESHFLKCPKPSAQEIFNLADSLQLEKEVVRVWFCNRRQKEKR [T30F]	-0.082 ± 0.12
KKRTSIEVSVKGALESHFLKCPKPSAQEIINLADSLQLEKEVVRVWFCNRRQKEKR [T30I]	-0.035 ± 0.099
KKRTSIEVSVKGALESHFLKCPKPSAQEISNLADSLQLEKEVVRVWFCNRRQKEKR [T30S]	0.031 ± 0.071
KKRTSIEVSVKGALESHFLKCPKPSAQEIQNLADSLQLEKEVVRVWFCNRRQKEKR [T30Q]	0.079 ± 0.11
KKRTSIEVSVKGALESHFLKCPKPSAQEICNLADSLQLEKEVVRVWFCNRRQKEKR [T30C]	-0.037 ± 0.12
KKRTSIEVSVKGALESHFLKCPKPSAQEIHNLADSLQLEKEVVRVWFCNRRQKEKR [T30H]	-0.153 ± 0.12
KKRTSIEVSVKGALESHFLKCPKPSAQEINNLADSLQLEKEVVRVWFCNRRQKEKR [T30N]	-0.095 ± 0.099
